Experimental data taken from paper PMC4928780.

Target: mucins in cell-free regions of human cervicovaginal mucus (CVM) (human (endogenous in cervicovaginal mucus))
Test: FRAP (fluorescence recovery after photobleaching); labeled exogenous IgG (0.1–1.5 mg/mL final) stirred into 10 μL of fresh pH-neutralized (pH 6.8–7.1) human CVM, 1 hr at 37°C; about 10 μm x 10 μm ROIs in cell-free regions; recovery half-time against PBS (Dcvm/Dpbs); 7–9 repeats

Dcvm/Dpbs: 0.8
Substance: Human intravenous immunoglobulin (IVIG), FITC-labeled (antibody)
